Reference: patent publication US20040146964

System: T1, C. elegans HIF-α homologue, wild type
T1 sequence: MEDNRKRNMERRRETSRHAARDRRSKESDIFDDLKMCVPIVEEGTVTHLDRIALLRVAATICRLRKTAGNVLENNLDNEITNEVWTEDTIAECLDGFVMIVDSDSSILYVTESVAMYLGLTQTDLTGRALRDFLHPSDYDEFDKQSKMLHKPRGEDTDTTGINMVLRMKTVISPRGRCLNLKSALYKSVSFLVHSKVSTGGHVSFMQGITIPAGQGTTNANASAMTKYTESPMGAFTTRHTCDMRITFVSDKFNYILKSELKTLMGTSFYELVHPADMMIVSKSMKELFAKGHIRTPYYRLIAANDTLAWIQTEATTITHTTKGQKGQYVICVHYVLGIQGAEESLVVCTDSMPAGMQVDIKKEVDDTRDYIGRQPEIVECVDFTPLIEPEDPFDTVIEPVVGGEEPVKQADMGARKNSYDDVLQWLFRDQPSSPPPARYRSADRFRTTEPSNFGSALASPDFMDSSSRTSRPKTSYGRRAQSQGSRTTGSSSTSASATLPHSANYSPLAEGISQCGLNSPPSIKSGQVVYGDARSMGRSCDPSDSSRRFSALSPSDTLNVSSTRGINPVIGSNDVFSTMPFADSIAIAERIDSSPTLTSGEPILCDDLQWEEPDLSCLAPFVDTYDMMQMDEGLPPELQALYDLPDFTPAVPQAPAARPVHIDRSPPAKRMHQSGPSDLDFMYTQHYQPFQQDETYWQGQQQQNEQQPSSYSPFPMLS

## gene product of the predicted ORF T20B3.7
  modification of HIF-1 read by HA.VHL-1 capture: had no activity in these assays
